Some targets named below: AHNAK1, Q09666; IL16_3, Q14005; PTPN3, P26045; NHERF4_2, Q86UT5; MAGI2_5, Q86UL8; HTRA1, Q92743; PICK1, Q9NRD5; DLG1_3, Q12959; NOS1, P29475; MAST1, Q9Y2H9; DLG2_3, Q15700; TJP1_2, Q07157.
Assay in all cases: holdup assay
Common to all, as to parameters: key: below the threshold = too weak to quantify, mostly under pKd 3.1 to 4
What all share (details): plain residues with an end cap or a label only (N-terminal biotin on a linker: ado-ado)

A further assay has as its target T1, MPDZ_10, O75970.
T1 sequence (O75970 1624-1722, limits assumed, looked up): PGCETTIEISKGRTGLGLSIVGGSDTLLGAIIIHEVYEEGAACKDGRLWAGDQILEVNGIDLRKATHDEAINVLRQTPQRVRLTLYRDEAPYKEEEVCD

The target of the next assay is T2, APBA3_1, O96018.
T2 sequence (O96018 389-490, limits assumed, looked up): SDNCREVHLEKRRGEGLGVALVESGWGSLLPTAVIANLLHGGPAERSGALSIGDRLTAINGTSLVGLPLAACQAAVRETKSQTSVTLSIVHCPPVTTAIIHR

Another assay has as its target T3, DLG3_1, Q92796.
T3 sequence (Q92796 125-227, limits assumed, looked up): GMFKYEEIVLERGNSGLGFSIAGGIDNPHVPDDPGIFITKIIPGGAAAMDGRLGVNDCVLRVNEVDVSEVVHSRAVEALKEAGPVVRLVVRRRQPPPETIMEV

A further assay addresses T4, ARHGEF11, O15085.
T4 sequence (O15085 42-136, limits assumed, looked up): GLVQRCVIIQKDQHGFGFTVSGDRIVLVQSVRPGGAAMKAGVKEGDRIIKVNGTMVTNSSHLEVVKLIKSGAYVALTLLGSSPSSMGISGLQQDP

The target of a further assay is T5, DFNB31_3, Q9P202.
T5 sequence (Q9P202 811-907, limits assumed, looked up): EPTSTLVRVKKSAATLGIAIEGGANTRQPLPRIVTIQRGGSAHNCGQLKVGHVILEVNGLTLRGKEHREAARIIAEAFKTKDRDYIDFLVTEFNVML

Another assay concerns the target T6, PDZRN3_1, Q9UPQ7.
T6 sequence (Q9UPQ7 244-349, limits assumed, looked up): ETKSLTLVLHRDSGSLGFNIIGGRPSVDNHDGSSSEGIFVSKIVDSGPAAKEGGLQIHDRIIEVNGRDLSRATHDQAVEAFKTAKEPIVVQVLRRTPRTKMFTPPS

A further assay has as its target T7, TX1BP3, O14907.
T7 sequence (O14907 10-122, limits assumed, looked up): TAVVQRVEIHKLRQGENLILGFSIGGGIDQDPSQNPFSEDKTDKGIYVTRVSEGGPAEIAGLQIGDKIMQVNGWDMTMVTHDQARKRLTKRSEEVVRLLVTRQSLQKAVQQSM

A further assay addresses T8, LIN7A, O14910.
T8 sequence (O14910 103-200, limits assumed, looked up): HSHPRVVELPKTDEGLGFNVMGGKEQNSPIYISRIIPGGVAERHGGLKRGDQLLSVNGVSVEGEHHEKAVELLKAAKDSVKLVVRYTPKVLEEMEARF

In the next assay the target is T9, LRRC7, Q96NW7.
T9 sequence (Q96NW7 1440-1537, limits assumed, looked up): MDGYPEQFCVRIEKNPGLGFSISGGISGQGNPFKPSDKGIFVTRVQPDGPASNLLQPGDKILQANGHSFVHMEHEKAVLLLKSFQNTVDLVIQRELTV

For another assay, the target named is T10, NHERF3_4, Q5T2W1.
T10 sequence (Q5T2W1 373-468, limits assumed, looked up): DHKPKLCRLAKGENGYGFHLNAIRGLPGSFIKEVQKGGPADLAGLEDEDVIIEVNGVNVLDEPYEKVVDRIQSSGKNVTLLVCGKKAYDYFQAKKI

Another assay has as its target T11, MPDZ_12, O75970.
T11 sequence (O75970 1857-1958, limits assumed, looked up): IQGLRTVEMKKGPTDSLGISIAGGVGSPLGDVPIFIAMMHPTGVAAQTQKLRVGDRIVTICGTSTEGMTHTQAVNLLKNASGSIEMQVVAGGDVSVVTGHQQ

The next assay concerns the target T12, MPDZ_5, O75970.
T12 sequence (O75970 695-796, limits assumed, looked up): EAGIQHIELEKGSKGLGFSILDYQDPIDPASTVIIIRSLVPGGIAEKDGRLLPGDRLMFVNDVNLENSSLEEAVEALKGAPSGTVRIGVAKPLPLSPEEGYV

Broadly, the pKd is the Kd on a negative log10 scale, so that one unit is a factor of ten.

Sequence of AHNAK1, Q09666 (Q09666 4-100): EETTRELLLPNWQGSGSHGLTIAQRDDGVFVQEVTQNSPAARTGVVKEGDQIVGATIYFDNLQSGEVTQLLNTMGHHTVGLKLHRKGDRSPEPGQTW
Sequence of PTPN3, P26045 (P26045 505-587): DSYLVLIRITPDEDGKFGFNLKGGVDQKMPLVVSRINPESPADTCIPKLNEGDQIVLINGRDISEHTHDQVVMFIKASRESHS
Sequence of NHERF4_2, Q86UT5 (Q86UT5 220-308): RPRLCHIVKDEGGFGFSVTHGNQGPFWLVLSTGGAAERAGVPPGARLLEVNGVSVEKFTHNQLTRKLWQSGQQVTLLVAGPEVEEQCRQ
Sequence of IL16_3, Q14005 (Q14005 1107-1207): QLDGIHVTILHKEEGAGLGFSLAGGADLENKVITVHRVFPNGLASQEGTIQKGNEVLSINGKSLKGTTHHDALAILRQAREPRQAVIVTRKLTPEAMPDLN
Sequence of DLG1_3, Q12959 (Q12959 457-571): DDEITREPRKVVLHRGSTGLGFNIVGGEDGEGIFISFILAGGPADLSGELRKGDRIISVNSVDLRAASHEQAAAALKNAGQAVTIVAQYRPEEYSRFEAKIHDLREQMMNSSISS
Sequence of NOS1, P29475 (P29475 9-101): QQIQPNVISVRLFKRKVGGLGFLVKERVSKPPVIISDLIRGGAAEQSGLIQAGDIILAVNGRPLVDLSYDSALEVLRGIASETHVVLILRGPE
Sequence of TJP1_2, Q07157 (Q07157 181-274): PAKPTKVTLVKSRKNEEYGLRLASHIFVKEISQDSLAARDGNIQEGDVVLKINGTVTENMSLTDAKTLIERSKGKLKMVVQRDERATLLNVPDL
Sequence of HTRA1, Q92743 (Q92743 360-477): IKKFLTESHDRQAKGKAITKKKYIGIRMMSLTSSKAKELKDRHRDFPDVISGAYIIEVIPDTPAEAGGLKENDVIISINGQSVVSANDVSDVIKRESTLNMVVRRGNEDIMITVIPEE
Sequence of MAGI2_5, Q86UL8 (Q86UL8 915-1017): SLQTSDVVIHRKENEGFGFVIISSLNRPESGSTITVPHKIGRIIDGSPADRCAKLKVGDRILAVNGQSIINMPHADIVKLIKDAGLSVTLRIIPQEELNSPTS
Sequence of PICK1, Q9NRD5 (Q9NRD5 17-115): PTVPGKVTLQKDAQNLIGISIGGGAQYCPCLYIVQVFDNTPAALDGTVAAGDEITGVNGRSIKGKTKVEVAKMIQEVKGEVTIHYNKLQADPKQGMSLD
Sequence of MAST1, Q9Y2H9 (Q9Y2H9 962-1065): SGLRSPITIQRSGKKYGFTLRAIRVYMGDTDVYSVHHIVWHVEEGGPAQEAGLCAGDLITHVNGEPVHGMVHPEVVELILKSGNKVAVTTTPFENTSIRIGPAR

Take GTMFLRETSL [GUCY1A2, P33402]: the pKd with MPDZ_10, O75970 was 3.67; with AHNAK1, Q09666, “below the threshold”; with APBA3_1, O96018, “below the threshold”; with IL16_3, Q14005 it was “below the threshold”; with DLG3_1, Q92796, “below the threshold”; with PTPN3, P26045 it was 5.04. Moreover, the pKd result was “below the threshold” with NHERF4_2, Q86UT5; 4.52 with ARHGEF11, O15085; 3.98 in the assay with MAGI2_5, Q86UL8; 3.77 with HTRA1, Q92743; 3.5 in the assay with DFNB31_3, Q9P202; 4.12 with PICK1, Q9NRD5. In addition, the negative-log Kd (pKd) in the assay with PDZRN3_1, Q9UPQ7 worked out at 6.34; in the assay with TX1BP3, O14907 it was 5.31; with LIN7A, O14910, 4.35; in the assay with LRRC7, Q96NW7, 4.33; in the assay with DLG1_3, Q12959, 5.09; with NOS1, P29475, 3.84. For the same molecule, the negative logarithm of the Kd (pKd) in the assay with NHERF3_4, Q5T2W1 was 4.38; in the assay with MAST1, Q9Y2H9 it was 5.08; in the assay with MPDZ_12, O75970 it was “below the threshold”; with MPDZ_5, O75970, “below the threshold”; with DLG2_3, Q15700, 4.79; in the assay with TJP1_2, Q07157 it was “below the threshold”.

Take IKLETKKTKL [SLC15A2, Q16348]: the negative logarithm of the Kd (pKd) entry with MPDZ_10, O75970 is “below the threshold”; with AHNAK1, Q09666 it was “below the threshold”; with APBA3_1, O96018 it was “below the threshold”; with IL16_3, Q14005 it was “below the threshold”; with DLG3_1, Q92796, 3.69; in the assay with PTPN3, P26045 it was “below the threshold”. Besides, the pKd in the assay with NHERF4_2, Q86UT5 is 3.63; with ARHGEF11, O15085, 4.27; in the assay with MAGI2_5, Q86UL8 it was 3.6; with HTRA1, Q92743, “below the threshold”; with DFNB31_3, Q9P202 it was 4.16; with PICK1, Q9NRD5 it was “below the threshold”. Further, the pKd result in the assay with PDZRN3_1, Q9UPQ7 was “below the threshold”; with TX1BP3, O14907 it was 4.02; with LIN7A, O14910 it was “below the threshold”; with LRRC7, Q96NW7, “below the threshold”; with DLG1_3, Q12959, 3.97; with NOS1, P29475 it was 3.61. For the same molecule, the pKd with NHERF3_4, Q5T2W1 was 4.77; with MAST1, Q9Y2H9, 4.86; with MPDZ_12, O75970 it was “below the threshold”; with MPDZ_5, O75970, “below the threshold”; with DLG2_3, Q15700, “below the threshold”; with TJP1_2, Q07157, “below the threshold”.

Take GQNMTVSVVI [PRLHR, P49683]: the pKd result with MPDZ_10, O75970 is “below the threshold”; with AHNAK1, Q09666, “below the threshold”; with APBA3_1, O96018 it was “below the threshold”; with IL16_3, Q14005 it was “below the threshold”; in the assay with DLG3_1, Q92796, “below the threshold”; with PTPN3, P26045, 3.77. The negative logarithm of the Kd (pKd) entry in the assay with NHERF4_2, Q86UT5 is “below the threshold”; in the assay with ARHGEF11, O15085, 4.94; in the assay with MAGI2_5, Q86UL8, “below the threshold”; in the assay with HTRA1, Q92743 it was 4.82; with DFNB31_3, Q9P202 it was 4.21; with PICK1, Q9NRD5, “below the threshold”. Further, the pKd result in the assay with PDZRN3_1, Q9UPQ7 was “below the threshold”; with TX1BP3, O14907 it was “below the threshold”; with LIN7A, O14910, “below the threshold”; with LRRC7, Q96NW7 it was “below the threshold”; with DLG1_3, Q12959 it was “below the threshold”; in the assay with NOS1, P29475, 3.82. Moreover, the pKd in the assay with NHERF3_4, Q5T2W1 is 3.73; in the assay with MAST1, Q9Y2H9, 3.9; in the assay with MPDZ_12, O75970 it was “below the threshold”; in the assay with MPDZ_5, O75970 it was “below the threshold”; with DLG2_3, Q15700 it was 3.74; with TJP1_2, Q07157 it was 3.69.

Values taken from article PMC9482650, “Quantitative fragmentomics allow affinity mapping of interactomes” (Nature Communications, 2022).
